“And” between values parts separate entries of the source, which are not always exact repeats. Equal values may be shown once.
How the values were obtained:
[1] = target: recombinant human VEGF165 (human, UniProt P15692-4 27-191); test: cell-based or functional assay
[2] = target: human DLL4 extracellular domain (human, UniProt Q9NR61 27-529); test: cell-based or functional assay
IGF-2 = target: T1, IGF-2 (UniProt P01344 25-91); test: Biacore SPR
T1 construct: Bought reagent
Procedure: (§1) The BIACORE assay (Biacore, Inc, Piscataway, N.J.) determines the affinity of antibodies or DVD-Ig with kinetic measurements of on-rate and off-rate constants. Binding of antibodies or DVD-Ig to a target antigen (for example, a purified recombinant target antigen) is determined by surface plasmon resonance-based measurements with a Biacore® 1000 or 3000 instrument (Biacore® AB, Uppsala, Sweden) using running HBS-EP (10 mM HEPES [pH 7.4], 150 mM NaCl, 3 mM EDTA, and 0.005% surfactant P20) at 25° C. […] For example, approximately 5000 RU of goat anti-mouse IgG, (Fcγ), fragment specific polyclonal antibody (Pierce Biotechnology Inc, Rockford, Ill.) diluted in 10 mM sodium acetate (pH 4.5) is directly immobilized across a CM5 research grade biosensor chip using a standard amine coupling kit according to manufacturer's instructions and procedures at 25 μg/ml. Unreacted moieties on the biosensor surface are blocked with ethanolamine. Modified carboxymethyl dextran surface in flowcell 2 and 4 is used as a reaction surface. Unmodified carboxymethyl dextran without goat anti-mouse IgG in flow cell 1 and 3 is used as the reference surface. For kinetic analysis, rate equations derived from the 1:1 Langmuir binding model are fitted simultaneously to association and dissociation phases of all eight injections (using global fit analysis) with the use of Biaevaluation 4.0.1 software. Purified antibodies or DVD-Ig are diluted in HEPES-buffered saline for capture across goat anti-mouse IgG specific reaction surfaces. Antibodies or DVD-Ig to be captured as a ligand (25 μg/ml) are injected over reaction matrices at a flow rate of 5 μl/min. The association and dissociation rate constants, kₒₙ (M⁻¹s⁻¹) and koff (s⁻¹) are determined under a continuous flow rate of 25 μl/min. Rate constants are derived by making kinetic binding measurements at different antigen concentrations ranging from 10-200 nM. The equilibrium dissociation constant (M) of the reaction between antibodies or DVD-Igs and the target antigen is then calculated from the kinetic rate constants by the following formula: KD=koff/kₒₙ. Binding is recorded as a function of time and kinetic rate constants are calculated.

MSP Receptor ECD-His tag = target: T2, MSP Receptor ECD-His tag (UniProt Q04912 25-957, limits assumed); test: Biacore SPR
T2 construct: extracellular domain; Bought reagent; also called RON; not shown: His tag

HGF = target: T3, HGF (UniProt P14210 32-728); test: Biacore SPR
T3 construct: Bought reagent
Procedure: as §1

DLL ECD His tag = target: T4, DLL ECD His tag (UniProt Q9NR61 27-529, limits assumed); test: Biacore SPR
T4 construct: extracellular domain; Bought reagent; also called DLL4; DLL-4; not shown: His tag

Placental GF = target: T5, Placental GF (UniProt P49763-2 21-149, limits assumed); test: Biacore SPR
T5 construct: Bought reagent; also called PlGF; PLGF
T5 sequence (looked up): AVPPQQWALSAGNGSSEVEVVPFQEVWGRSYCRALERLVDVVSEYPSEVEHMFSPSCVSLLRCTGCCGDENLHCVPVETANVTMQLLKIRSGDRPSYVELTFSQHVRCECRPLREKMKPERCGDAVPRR
Procedure: as §1

[3] = target: T6, DLL4 ECD/His tag (R&D 1506-D4-050) (UniProt Q9NR61 27-529); test: direct bind ELISA, DLL4 on plate; DLL4 VD C-term.; HC Short, LC Long
T6 construct: extracellular domain; Bought antigen coated on the ELISA plate; not shown: His tag

T3 sequence (P14210 32-728 limits assumed): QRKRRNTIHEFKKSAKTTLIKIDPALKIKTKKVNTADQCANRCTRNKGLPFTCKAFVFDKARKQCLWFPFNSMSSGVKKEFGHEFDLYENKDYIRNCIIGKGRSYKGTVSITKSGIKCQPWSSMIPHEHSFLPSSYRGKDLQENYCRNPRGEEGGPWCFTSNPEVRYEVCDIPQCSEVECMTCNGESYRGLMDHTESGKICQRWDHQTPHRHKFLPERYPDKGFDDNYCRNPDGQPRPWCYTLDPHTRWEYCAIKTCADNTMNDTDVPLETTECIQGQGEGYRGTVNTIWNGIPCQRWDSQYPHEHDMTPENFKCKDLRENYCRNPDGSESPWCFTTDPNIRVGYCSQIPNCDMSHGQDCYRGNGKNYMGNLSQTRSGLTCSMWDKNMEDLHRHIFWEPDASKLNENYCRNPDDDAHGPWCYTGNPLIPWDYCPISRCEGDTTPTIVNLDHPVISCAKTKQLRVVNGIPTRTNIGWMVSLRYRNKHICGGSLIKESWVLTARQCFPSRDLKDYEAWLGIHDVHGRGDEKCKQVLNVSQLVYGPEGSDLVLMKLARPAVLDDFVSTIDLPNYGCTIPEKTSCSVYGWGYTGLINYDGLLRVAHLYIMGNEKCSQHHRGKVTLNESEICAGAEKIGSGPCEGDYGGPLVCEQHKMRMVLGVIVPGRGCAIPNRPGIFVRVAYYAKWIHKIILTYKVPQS
recombinant human VEGF165, sequence (P15692 other isoform, or with tags, fused parts or gaps limits assumed): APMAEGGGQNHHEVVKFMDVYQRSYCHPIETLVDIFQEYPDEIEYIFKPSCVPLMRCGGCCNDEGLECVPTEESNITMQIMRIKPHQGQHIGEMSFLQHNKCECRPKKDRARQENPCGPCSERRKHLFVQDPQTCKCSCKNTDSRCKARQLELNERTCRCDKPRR

B1: DVD043 (bispecific antibody, human IgG1, kappa)
heavy: not shown
light: DIQMTQSPSSLSASVGDRVTITCSASQDISNYLNWYQQKPGKAPKVLIYFTSSLHSGVPSRFSGSGSGTDFTLTISSLQPEDFATYYCQQYSTVPWTFGQGTKVEIKRTVAAPDIQMTQSPSSLSASVGDRVTITCRASQDVSTAVAWYQQKPGKAPKLLIYSASFLYSGVPSRFSGSGSGTDFTLTISSLQPEDFATTYYCQQSYTGTVTFGQGTKVEIKRTVAAPSVFIFPPSDEQLKSGTASVVCLLNNFYPREAKVQWKVDNALQSGNSQESVTEQDSKDSTYSLSSTLTLSKADYEKHKVYACEVTHQGLSSPVTKSFNRGEC
In the case of B1, the “% inhibition of HUVEC proliferation at 0.67 nM” value [1] is reported as -22%, the “% inhibition of HUVEC proliferation at 6.7 nM” value [1] is reported as 51% and the “% inhibition of HUVEC proliferation at 67 nM” value [1] is reported as 89%. For the same binder, the “Soluble Flt1 Assay, % of Neutralization @ 9.2 nM Ab” value [2] was 1.1%, the “Soluble Flt1 Assay, % of Neutralization @ 27.7 nM Ab” value [2] was 50.3% and the “Soluble Flt1 Assay, % of Neutralization @ 83.3 nM Ab” value [2] was 57.9%.

B2: DVD047 (bispecific antibody, human IgG1, kappa)
heavy: not shown
light: DIQMTQSPSSLSASVGDRVTITCSASQDISNYLNWYQQKPGKAPKVLIYFTSSLHSGVPSRFSGSGSGTDFTLTISSLQPEDFATYYCQQYSTVPWTFGQGTKVEIKRTVAAPDVVMTQSPLSLPVTPGEPASISCRSSQSLLHSNGFNYVDWYLQKPGQSPHLLIYFGSYRASGVPDRFSGSGSGTDFTLKISRVEAEDVGVYYCMQALQTPPWTFGQGTKVEIRRTVAAPSVFIFPPSDEQLKSGTASVVCLLNNFYPREAKVQWKVDNALQSGNSQESVTEQDSKDSTYSLSSTLTLSKADYEKHKVYACEVTHQGLSSPVTKSFNRGEC
For B2, the “% inhibition of HUVEC proliferation at 0.67 nM” value [1] was -5%, the “% inhibition of HUVEC proliferation at 6.7 nM” value [1] was 31% and the “% inhibition of HUVEC proliferation at 67 nM” value [1] was 65%.

B3: AB015 (antibody, human IgG1, kappa)
heavy: not shown
light: DIQMTQSPSSLSASVGDRVTITCRASQDVSTAVAWYQQKPGKAPKLLIYSASFLYSGVPSRFSGSGSGTDFTLTISSLQPEDFATTYYCQQSYTGTVTFGQGTKVEIKRTVAAPSVFIFPPSDEQLKSGTASVVCLLNNFYPREAKVQWKVDNALQSGNSQESVTEQDSKDSTYSLSSTLTLSKADYEKHKVYACEVTHQGLSSPVTKSFNRGEC
For B3, the “Soluble Flt1 Assay, % of Neutralization @ 9.2 nM Ab” value [2] was 75.2%, the “Soluble Flt1 Assay, % of Neutralization @ 27.7 nM Ab” value [2] was 78.7% and the “Soluble Flt1 Assay, % of Neutralization @ 83.3 nM Ab” value [2] was 86.6%.

B4: DVD041 (bispecific antibody, human IgG1, lambda)
heavy: not shown
light: DIQMTQSPSSLSASVGDRVTITCSASQDISNYLNWYQQKPGKAPKVLIYFTSSLHSGVPSRFSGSGSGTDFTLTISSLQPEDFATYYCQQYSTVPWTFGQGTKVEIKRTVAAPQSVLTQPPSVSAAPGQKVTISCSGSSSNIENNHVSWYQQLPGTAPKLLIYDNNKRPSGIPDRFSGSKSGTSATLGITGLQTGDEADYYCETWDTSLSAGRVFGGGTKLTVLGQPKAAPSVTLFPPSSEELQANKATLVCLISDFYPGAVTVAWKADSSPVKAGVETTTPSKQSNNKYAASSYLSLTPEQWKSHRSYSCQVTHEGSTVEKTVAPTECS
notes: N-terminal VD VEGF, C-terminal VD IGF1,2; also called DVD041H; DVD041L
For B4, the Kd (IGF-2) was < 0.0124 nM, the koff (IGF-2) was < 1e-06 s⁻¹ and the kon (IGF-2) was 80900 M⁻¹ s⁻¹.

B5: AB005 (antibody, human IgG1, kappa, V domains shown)
VH: EVQLVQSGGGLVKPGGSLRLSCAASGFTFSSYAMHWVRQAPGKGLEWVAVISYDGSNKYYADSVKGRFTISRDNSKNTLYLQMNSLRAEDTAVYYCARFSGWPNNYYYYGMDVWGQGTTVTVSS
VL: DVVMTQSPLSLPVTPGEPASISCRSSQSLLHSNGFNYVDWYLQKPGQSPHLLIYFGSYRASGVPDRFSGSGSGTDFTLKISRVEAEDVGVYYCMQALQTPPWTFGQGTKVEIRR
In the case of B5, the Kd (MSP Receptor ECD-His tag) is reported as 20.2 nM and 20.1 nM, the koff (MSP Receptor ECD-His tag) is reported as 0.000739 s⁻¹ and the kon (MSP Receptor ECD-His tag) is reported as 36600 M⁻¹ s⁻¹.

B6: DVD033 (bispecific antibody, human IgG1, kappa)
heavy: not shown
light: DVVMTQSPLSLPVTPGEPASISCRSSQSLLHSNGFNYVDWYLQKPGQSPHLLIYFGSYRASGVPDRFSGSGSGTDFTLKISRVEAEDVGVYYCMQALQTPPWTFGQGTKVEIRRTVAAPDIQMTQSPSSVSASVGDRVTITCRASQGISSWLAWYQQKPGKAPNLLIYEASSLQSGVPSRFGGSGSGTDFTLTISSLQPEDFATYYCQQANGFPWTFGQGTKVEIKRTVAAPSVFIFPPSDEQLKSGTASVVCLLNNFYPREAKVQWKVDNALQSGNSQESVTEQDSKDSTYSLSSTLTLSKADYEKHKVYACEVTHQGLSSPVTKSFNRGEC
notes: N-terminal VD RON, C-terminal VD HGF; also called DVD033H; DVD033L
B6 showed a Kd (MSP Receptor ECD-His tag) of 7.6 nM, a koff (MSP Receptor ECD-His tag) of 0.00118 s⁻¹ and a kon (MSP Receptor ECD-His tag) of 156000 M⁻¹ s⁻¹. It also gave a Kd (HGF) of 0.31 nM, a koff (HGF) of 9.2e-05 s⁻¹ and a kon (HGF) of 297000 M⁻¹ s⁻¹.

B7: AB015 (antibody, human IgG1, kappa)
heavy: not shown
light: B3 light
B7 showed a Kd (DLL ECD His tag) of 0.414 nM, a koff (DLL ECD His tag) of 0.000166 s⁻¹ and a kon (DLL ECD His tag) of 400000 M⁻¹ s⁻¹.

B8: DVD043 (bispecific antibody, human IgG1, kappa)
heavy: not shown
light: B1 light
notes: N-terminal VD VEGF, C-terminal VD DLL4; also called DVD043H; DVD043L
B8 was tested, and the Kd (DLL ECD His tag) was 2.32 nM, the koff (DLL ECD His tag) was 0.000217 s⁻¹ and the kon (DLL ECD His tag) was 93700 M⁻¹ s⁻¹.

B9: AB047 (antibody, human IgG1, kappa, V domains shown)
VH: QVQLQQSGAELVKPGASVKISCKASGYTFTDYYINWVKLAPGQGLEWIGWIYPGSGNTKYNEKFKGKATLTIDTSSSTAYMQLSSLTSEDTAVYFCVRDSPFFDYWGQGTLLTVSS
VL: DIVLTQSPDSLAVSLGERVTMNCKSSQSLLNSGMRKSFLAWYQQKPGQSPKLLIYWASTRESGVPDRFTGSGSGTDFTLTISSVQAEDVAVYYCKQSYHLFTFGSGTKLEIKR
For B9, the Kd (Placental GF) was 0.0284 nM, the koff (Placental GF) was 0.000108 s⁻¹ and the kon (Placental GF) was 3.8e+06 M⁻¹ s⁻¹.

B10: DVD506 (bispecific antibody, human IgG1, kappa)
heavy: not shown
light: DIQMTQSPSSLSASVGDRVTITCSASQDISNYLNWYQQKPGKAPKVLIYFTSSLHSGVPSRFSGSGSGTDFTLTISSLQPEDFATYYCQQYSTVPWTFGQGTKVEIKRTVAAPSVFIFPPDIQMTQSSSYLSVSLGGRVTITCKASDHINNWLAWYQQKPGNAPRLLISGATSLETGVPSRFSGSGSGKDYTLSITSLQTEDVATYYCQQYWSIPLTFGAGTKLELKRTVAAPSVFIFPPSDEQLKSGTASVVCLLNNFYPREAKVQWKVDNALQSGNSQESVTEQDSKDSTYSLSSTLTLSKADYEKHKVYACEVTHQGLSSPVTKSFNRGEC
notes: DVD-Ig; HC short, LC long linker; also called DVD506H; DVD506L
B10 gave an EC50 [3] of 0.32 nM.

B11: DVD486 (bispecific antibody, human IgG1, kappa)
heavy: not shown
light: DIQMTQSPSSLSASVGDRVTITCRASQVIRRSLAWYQQKPGKAPKLLIYAASNLASGVPSRFSGSGSGTDFTLTISSLQPEDFATYYCQQSNTSPLTFGQGTKVEIKRTVAAPSVFIFPPDIQMTQSPSSLSASVGDRVTITCRASQDVSTAVAWYQQKPGKAPKLLIYSASFLYSGVPSRFSGSGSGTDFTLTISSLQPEDFATTYYCQQSYTGTVTFGQGTKVEIKRTVAAPSVFIFPPSDEQLKSGTASVVCLLNNFYPREAKVQWKVDNALQSGNSQESVTEQDSKDSTYSLSSTLTLSKADYEKHKVYACEVTHQGLSSPVTKSFNRGEC
notes: DVD-Ig; outer AB071 (VEGF), inner AB015 (DLL4); HC short, LC long linker; also called DVD486H; DVD486L
With B11 the EC50 [3] was 0.59 nM.

B12: DVD464 (bispecific antibody, human IgG1, kappa)
heavy: not shown
light: DIQMTQSPSSLSASVGDRVTITCRASQVIRRSLAWYQQKPGKAPKLLIYAASNLASGVPSRFSGSGSGTDFTLTISSLQPEDFATYYCQQSNTSPLTFGQGTKVEIKRTVAAPSVFIFPPDIVMTQSPDSLAVSLGERATISCRASESVDNYGISFMKWFQQKPGQPPKLLIYAASNQGSGVPDRFSGSGSGTDFTLTISSLQAEDVAVYYCQQSKEVPWTFGGGTKVEIKRTVAAPSVFIFPPSDEQLKSGTASVVCLLNNFYPREAKVQWKVDNALQSGNSQESVTEQDSKDSTYSLSSTLTLSKADYEKHKVYACEVTHQGLSSPVTKSFNRGEC
notes: DVD-Ig; outer AB071 (VEGF), inner AB069 (DLL4); HC short, LC long linker; also called DVD464H; DVD464L
With B12 the EC50 [3] was 0.8 nM.

B13: DVD534 (bispecific antibody, human IgG1, kappa, lambda, L234A L235A)
heavy: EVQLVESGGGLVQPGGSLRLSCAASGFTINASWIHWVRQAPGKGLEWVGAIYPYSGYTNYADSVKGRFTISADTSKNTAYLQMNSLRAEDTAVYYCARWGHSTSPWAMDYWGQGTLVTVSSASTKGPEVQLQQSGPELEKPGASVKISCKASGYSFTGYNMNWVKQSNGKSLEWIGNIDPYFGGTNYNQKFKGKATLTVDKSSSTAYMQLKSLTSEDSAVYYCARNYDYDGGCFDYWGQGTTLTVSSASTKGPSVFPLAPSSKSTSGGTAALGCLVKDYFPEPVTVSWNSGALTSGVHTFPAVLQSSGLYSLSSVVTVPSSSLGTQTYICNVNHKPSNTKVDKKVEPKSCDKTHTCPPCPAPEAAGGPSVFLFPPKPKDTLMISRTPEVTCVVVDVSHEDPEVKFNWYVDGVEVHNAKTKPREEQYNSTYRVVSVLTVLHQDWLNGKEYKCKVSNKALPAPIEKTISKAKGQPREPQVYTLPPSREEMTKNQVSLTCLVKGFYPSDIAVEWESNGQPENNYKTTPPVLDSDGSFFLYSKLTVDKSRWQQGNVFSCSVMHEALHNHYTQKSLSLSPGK
light: DIQMTQSPSSLSASVGDRVTITCRASQVIRRSLAWYQQKPGKAPKLLIYAASNLASGVPSRFSGSGSGTDFTLTISSLQPEDFATYYCQQSNTSPLTFGQGTKVEIKRTVAAPSVFIFPPQAVVTQESALTTSPGETVTLTCRSSTGAVTTSNYANWVQEKPDHLFTGLIGGTNNRAPGVPARFSGSLIGDKAALTITGAQTEDEAIYFCALWYSNHWVFGGGTKLTVLGQPKAAPSVTLFPPSSEELQANKATLVCLISDFYPGAVTVAWKADSSPVKAGVETTTPSKQSNNKYAASSYLSLTPEQWKSHRSYSCQVTHEGSTVEKTVAPTECS
notes: DVD-Ig; outer AB071 (VEGF), inner AB073 (DLL4); HC short, LC long linker; also called DVD534H; DVD534L
B13 was tested, and the EC50 [3] was 0.47 nM.

B14: DVD510 (bispecific antibody, human IgG1, kappa)
heavy: not shown
light: DIQMTQSPSSLSASVGDRVTITCRASQVIRRSLAWYQQKPGKAPKLLIYAASNLASGVPSRFSGSGSGTDFTLTISSLQPEDFATYYCQQSNTSPLTFGQGTKVEIKRTVAAPSVFIFPPDIQMTQSSSYLSVSLGGRVTITCKASDHINNWLAWYQQKPGNAPRLLISGATSLETGVPSRFSGSGSGKDYTLSITSLQTEDVATYYCQQYWSIPLTFGAGTKLELKRTVAAPSVFIFPPSDEQLKSGTASVVCLLNNFYPREAKVQWKVDNALQSGNSQESVTEQDSKDSTYSLSSTLTLSKADYEKHKVYACEVTHQGLSSPVTKSFNRGEC
notes: DVD-Ig; outer AB071 (VEGF), inner AB072 (DLL4); HC short, LC long linker; also called DVD510H; DVD510L
B14 showed an EC50 [3] of 0.42 nM.

Source: US20100260668A1 (published 2010)
